As a reminder, the Tm is the temperature at the midpoint of the melting transition.

“And” between values parts separate entries of the source, which are not always exact repeats. Equal entries are not always repeated.

For this series the following is noted: Alicyclobacillus acidocaldarius subsp. acidocaldarius, pH 7.5, Phosphate 20 mM, reversible: Yes; for denaturant midpoint (higher = more stable): 20 °C.

For the substance wild type (from UniProt Q7SIG1), the “denaturant midpoint (higher = more stable)” value was 1.9 M and 2.2 M (GdnHCl, CD); 1.9 M and 2 M and 2.2 M (GdnHCl, Fluorescence); 5.9 M and 4.6 M (Urea, CD). In addition, the melting temperature (Tm) was 91 °C and 86 °C (Thermal, CD); 86 °C (Thermal, DSC). The “unfolding enthalpy (van 't Hoff)” value runs as follows: (Thermal, CD) 105 kcal/mol and 122 kcal/mol and 62.1 kcal/mol; (Thermal, DSC) 127 kcal/mol and 83.7 kcal/mol. The “heat capacity change of unfolding” value is, setting by setting: (Thermal, DSC) 3.82 kcal/mol/K; (Thermal, DSC, transition: 3) 1.67 kcal/mol/K and 2.15 kcal/mol/K. Also, the “unfolding enthalpy (calorimetric)” value (Thermal, DSC) was 265 kcal/mol and 179 kcal/mol.

Source of the values: FireProtDB (doi:10.1016/j.bpc.2007.01.004).
